{
  "source": "paper PMC10484678",
  "target": "PCBP2 KH1/2 (human, UniProt Q15366 1-168)",
  "sequence (Q15366 1-168)": "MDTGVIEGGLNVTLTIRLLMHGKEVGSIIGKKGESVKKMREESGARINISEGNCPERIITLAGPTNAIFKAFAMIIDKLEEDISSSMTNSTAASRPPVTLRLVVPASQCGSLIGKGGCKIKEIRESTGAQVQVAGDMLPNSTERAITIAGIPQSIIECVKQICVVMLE",
  "assay": "ITC",
  "data": [
    {"binder": "GCUCUGGGGUUGUACCCACCCCAGAGC (structured_RNA)", "note": "[PV stem-loop B]", "values": [
      {"measurement": "Kd", "result": "22.9 ± 6.3", "unit": "µM"}
    ]}
  ]
}
